The values below come from US20150259402A1 (EVEC, published 2015).

Test [1] has as its target T1, toxin A fragment 4 (receptor-binding domain, amino acids 1853 to 2710 of toxin A) (Clostridium difficile, UniProt P16154 1853-2710).
T1 construct: also called RB domain
Nature of the test: Western blotting on E. coli lysates of toxin A fragments. A general note: Immunoblotting shows a protein as a band on a membrane.

Test [2] deals with T2, Clostridium difficile toxin A (Clostridium difficile, UniProt P16154 1-2710).
T2 construct: also called TcdA; C. difficile toxin A
T2 sequence (P16154 whole entry): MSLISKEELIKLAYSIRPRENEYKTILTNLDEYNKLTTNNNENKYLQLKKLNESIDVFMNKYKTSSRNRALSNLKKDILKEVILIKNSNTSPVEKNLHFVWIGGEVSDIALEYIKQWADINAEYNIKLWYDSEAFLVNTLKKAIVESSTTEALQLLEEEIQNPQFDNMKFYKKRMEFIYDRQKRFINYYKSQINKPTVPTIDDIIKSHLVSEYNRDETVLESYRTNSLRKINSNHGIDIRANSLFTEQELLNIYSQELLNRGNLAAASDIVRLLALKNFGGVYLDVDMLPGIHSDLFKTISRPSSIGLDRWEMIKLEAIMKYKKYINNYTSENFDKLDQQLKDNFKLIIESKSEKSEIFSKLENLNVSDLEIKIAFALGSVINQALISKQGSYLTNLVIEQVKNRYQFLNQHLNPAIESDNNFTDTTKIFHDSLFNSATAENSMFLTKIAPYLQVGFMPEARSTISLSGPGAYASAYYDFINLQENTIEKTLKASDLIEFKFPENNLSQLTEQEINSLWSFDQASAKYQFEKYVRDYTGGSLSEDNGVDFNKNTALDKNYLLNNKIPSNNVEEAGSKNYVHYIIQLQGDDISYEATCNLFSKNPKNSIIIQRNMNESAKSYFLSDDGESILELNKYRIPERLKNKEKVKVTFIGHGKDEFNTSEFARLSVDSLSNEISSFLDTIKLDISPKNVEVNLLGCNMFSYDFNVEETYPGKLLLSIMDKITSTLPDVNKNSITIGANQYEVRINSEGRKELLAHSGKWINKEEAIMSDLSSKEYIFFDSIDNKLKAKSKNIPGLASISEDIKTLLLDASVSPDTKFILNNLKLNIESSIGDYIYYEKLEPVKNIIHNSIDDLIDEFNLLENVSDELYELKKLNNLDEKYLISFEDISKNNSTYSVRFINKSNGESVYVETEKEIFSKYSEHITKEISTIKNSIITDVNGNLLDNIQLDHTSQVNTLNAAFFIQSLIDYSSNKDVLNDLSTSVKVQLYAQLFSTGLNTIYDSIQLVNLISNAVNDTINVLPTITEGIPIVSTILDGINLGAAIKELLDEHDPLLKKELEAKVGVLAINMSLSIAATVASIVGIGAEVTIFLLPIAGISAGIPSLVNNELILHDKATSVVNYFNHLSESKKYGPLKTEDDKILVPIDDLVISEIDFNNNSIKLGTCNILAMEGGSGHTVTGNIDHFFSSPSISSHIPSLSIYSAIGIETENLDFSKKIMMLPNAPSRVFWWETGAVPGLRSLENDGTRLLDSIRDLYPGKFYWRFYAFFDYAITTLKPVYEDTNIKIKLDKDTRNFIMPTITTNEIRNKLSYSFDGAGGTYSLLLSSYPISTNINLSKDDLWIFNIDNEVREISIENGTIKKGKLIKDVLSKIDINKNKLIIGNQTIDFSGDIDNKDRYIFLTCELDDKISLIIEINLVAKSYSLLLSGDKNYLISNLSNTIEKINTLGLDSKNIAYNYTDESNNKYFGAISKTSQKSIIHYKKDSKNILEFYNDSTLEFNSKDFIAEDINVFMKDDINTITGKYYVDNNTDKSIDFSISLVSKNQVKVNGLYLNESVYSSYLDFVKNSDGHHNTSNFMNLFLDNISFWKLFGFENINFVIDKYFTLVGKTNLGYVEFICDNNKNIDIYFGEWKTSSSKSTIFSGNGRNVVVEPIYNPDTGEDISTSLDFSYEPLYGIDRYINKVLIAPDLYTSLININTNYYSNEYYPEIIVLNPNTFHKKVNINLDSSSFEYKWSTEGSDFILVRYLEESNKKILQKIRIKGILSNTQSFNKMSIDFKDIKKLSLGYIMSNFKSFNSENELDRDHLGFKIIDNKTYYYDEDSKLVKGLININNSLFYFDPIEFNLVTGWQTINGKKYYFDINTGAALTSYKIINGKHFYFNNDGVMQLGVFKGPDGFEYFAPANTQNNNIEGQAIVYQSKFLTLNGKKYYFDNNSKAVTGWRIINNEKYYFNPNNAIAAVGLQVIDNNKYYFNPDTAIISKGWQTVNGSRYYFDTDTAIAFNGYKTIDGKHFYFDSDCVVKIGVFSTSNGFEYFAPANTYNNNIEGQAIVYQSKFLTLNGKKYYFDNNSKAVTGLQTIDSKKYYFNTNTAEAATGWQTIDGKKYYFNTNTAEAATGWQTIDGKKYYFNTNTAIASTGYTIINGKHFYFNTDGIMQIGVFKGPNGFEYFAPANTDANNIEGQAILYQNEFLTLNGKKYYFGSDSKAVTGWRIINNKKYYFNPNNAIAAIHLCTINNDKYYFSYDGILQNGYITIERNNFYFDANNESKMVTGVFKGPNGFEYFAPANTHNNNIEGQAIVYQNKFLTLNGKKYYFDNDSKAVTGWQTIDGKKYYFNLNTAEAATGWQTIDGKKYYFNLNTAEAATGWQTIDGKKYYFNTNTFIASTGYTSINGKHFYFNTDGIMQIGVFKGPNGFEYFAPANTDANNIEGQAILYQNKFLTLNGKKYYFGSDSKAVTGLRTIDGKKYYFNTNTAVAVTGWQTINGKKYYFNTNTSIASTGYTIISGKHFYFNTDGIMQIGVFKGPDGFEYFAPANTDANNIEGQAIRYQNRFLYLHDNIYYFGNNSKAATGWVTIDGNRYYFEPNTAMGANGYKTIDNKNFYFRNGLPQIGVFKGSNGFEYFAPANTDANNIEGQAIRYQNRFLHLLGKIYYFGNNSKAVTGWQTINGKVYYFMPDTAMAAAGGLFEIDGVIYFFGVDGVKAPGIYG
Nature of the test: SPR, Biacore T200, biotinylated toxin A on sensor chip CAP, antibody flowed. On the technique in general: Surface plasmon resonance follows binding to a sensor surface in real time, without labels.

Test [3] deals with T2, Clostridium difficile toxin A. The test is described as follows: cell-based or functional assay.
The target of test [4] is T3, toxin B fragment 4 (receptor-binding domain, amino acids 1777 to 2366 of toxin B) (Clostridium difficile, UniProt P18177 1777-2366).
T3 construct: also called RB domain
T3 sequence (P18177 1777-2366): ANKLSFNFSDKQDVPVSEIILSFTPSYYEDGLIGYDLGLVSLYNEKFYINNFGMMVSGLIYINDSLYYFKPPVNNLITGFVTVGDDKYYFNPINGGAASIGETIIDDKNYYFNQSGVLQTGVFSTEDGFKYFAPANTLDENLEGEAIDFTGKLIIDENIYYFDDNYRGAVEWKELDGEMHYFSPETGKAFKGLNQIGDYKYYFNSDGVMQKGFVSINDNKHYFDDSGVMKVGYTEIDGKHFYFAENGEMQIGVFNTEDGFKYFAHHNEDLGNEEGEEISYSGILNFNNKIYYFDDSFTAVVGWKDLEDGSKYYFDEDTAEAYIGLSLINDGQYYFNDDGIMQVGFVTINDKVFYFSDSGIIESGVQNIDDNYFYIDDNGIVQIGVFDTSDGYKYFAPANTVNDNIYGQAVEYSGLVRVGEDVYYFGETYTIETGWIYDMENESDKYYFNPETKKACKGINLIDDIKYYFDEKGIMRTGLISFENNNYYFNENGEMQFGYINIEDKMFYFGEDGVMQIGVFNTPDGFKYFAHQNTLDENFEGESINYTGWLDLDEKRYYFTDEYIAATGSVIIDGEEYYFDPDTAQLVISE
Nature of the test: Western blotting on E. coli lysates of toxin B fragments.

Test [5] concerns the target Clostridium difficile toxin B (Clostridium difficile, UniProt P18177 2-2366). Nature of the test: cell-based or functional assay.

Usually Kd stands for the free concentration of one partner at which half of the binding sites on the other are occupied at equilibrium, for simple one-to-one binding. A low value points to a tighter complex. For orientation: koff means the rate constant with which the complex falls apart. Lower therefore signals slow dissociation. As usually defined, the kon is a measure of how fast the partners come together.

T1 sequence (P16154 1853-2710): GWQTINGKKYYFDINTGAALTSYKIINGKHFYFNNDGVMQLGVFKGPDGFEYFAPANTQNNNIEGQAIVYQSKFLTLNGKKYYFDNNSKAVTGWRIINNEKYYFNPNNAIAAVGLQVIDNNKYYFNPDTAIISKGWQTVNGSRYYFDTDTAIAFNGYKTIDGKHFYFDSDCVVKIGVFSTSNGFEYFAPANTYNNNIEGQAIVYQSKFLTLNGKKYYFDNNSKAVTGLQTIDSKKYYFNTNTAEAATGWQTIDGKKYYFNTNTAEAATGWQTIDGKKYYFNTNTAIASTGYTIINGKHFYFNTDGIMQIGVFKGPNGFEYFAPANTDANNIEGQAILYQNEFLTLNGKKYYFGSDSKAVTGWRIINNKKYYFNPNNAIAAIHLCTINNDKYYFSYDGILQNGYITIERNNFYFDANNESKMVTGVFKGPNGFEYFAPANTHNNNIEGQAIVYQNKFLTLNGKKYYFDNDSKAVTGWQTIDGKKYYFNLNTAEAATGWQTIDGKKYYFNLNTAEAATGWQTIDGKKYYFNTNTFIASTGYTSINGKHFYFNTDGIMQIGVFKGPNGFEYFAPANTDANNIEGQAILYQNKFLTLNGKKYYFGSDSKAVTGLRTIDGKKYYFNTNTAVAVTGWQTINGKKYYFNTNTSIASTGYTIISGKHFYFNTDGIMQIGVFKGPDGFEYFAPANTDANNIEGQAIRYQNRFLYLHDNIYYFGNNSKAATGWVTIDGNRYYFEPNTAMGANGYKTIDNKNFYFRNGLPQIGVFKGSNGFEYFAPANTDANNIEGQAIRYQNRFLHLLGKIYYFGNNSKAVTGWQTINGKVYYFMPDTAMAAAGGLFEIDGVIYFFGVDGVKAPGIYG

B1: EV029105a (antibody, human IgG1, kappa, V domains shown)
VH: QVQLVQSGAEVKKPGSSVKVSCKASGDTFSSHAITWVRQAPGQGLEWMGRIIPIFSISDYAQKFQGRVTFTADKSTSIAFMELSSLRSQDTAVYYCARSLLAYCTGGSCSEFGAEDHWGQGTLVTVSS
VL: EIVLTQSPGTLSLSPGERATLSCRASQSVSSNYLAWYQQKPGQAPRLLIFGASSRATGIPDRFSGSGSGTDFTLTISRLEPEDFAVYYCQQYGSSIPVTFGQGTKVEIKR
notes: also called anti-toxin A antibody EV029105a
For B1, the binding result in test [1] is reported as “binds”. In test [2], the Kd came out at 0.151 nM, the koff came to 9.89e-05 s⁻¹ and the kon amounted to 653000 M⁻¹ s⁻¹. Besides, in test [3], the “EC50 (ng/mL), neutralizing activity against the cytotoxicity of toxin A to IMR-90 cells (cell rounding)” value amounted to 4.92 ng/mL and the “EC50, neutralizing activity against the cytotoxicity of toxin A to IMR-90 cells (cell rounding)” value is 0.033 nM.

B2: EV029104 (antibody, human IgG1, lambda, V domains shown)
VH: EVQLVESGGGLVQPGGSLRLSCAASGLTINSYWMNWVRQIPGKGLEWVANINPTGSQQYYVDSVRGRFTISRDDAKKSLFLQLDSLRVEDTAVYYCARGRRGNSAYCDSWGQGTQVTVSS
VL: QSALTQPRSVSGSPGQSVTISCTGTSSDIGAYDYVSWYRHHPGKAPKLIIFDVAKWPSGVPDRFSGSKSGNTASLTISGLQDDDEGDYYCCSYAGRFSLIFGGGTKLTVLG
notes: also called anti-toxin B antibody EV029104
Turning to B2, in test [4], the binding result was “binds”. Moreover, in test [5], the “neutralizing activity (EC50 value), rounding of toxin B-exposed IMR-90 cells” value is no more than 100 ng/mL.
